Results reported in the RNAGym collection of RNA variant scans (doi:10.1073/pnas.2313332121).

B1: TPR t1 (parent)
chain: GACCAAUCUGCCCUCAGAGCUCGAGAACAUCUUCGGAUGCAGAGGAGGCAGGCUUCGGUGGCGCGAUAGCGCCAACGUCCUCAACCUCCAAUGCAUCCCACCACAUGAUGAUGCCUGAAGAGCCUUGGUUUUUUG

Variants of: B1
Assay: polymerase ribozyme fitness, log enrichment relative to wild type (log ratio); higher = more active; in vitro selection for triplet polymerase activity
Outline: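 Input and output libraries were sequenced on Illumina after a single in vitro selection round, run in triplicate on PCR-built, transcribed mutant libraries of each subunit of a heterodimeric triplet polymerase ribozyme. Selection annealed libraries to a biotinylated primer, the partner subunit and triplets, incubated them frozen at −7 °C, then gel-excised extended constructs for streptavidin-bead capture and RT-PCR. Genotypes with ≥10 input reads and ≥1 read per output were kept. Fitness is the logarithm, taken in base 2, of genotype enrichment divided by wild-type enrichment, using inverse-variance-weighted replicate averages.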

Row | Variant | polymerase ribozyme fitness (log ratio)
1 | G71U C115G | -1.74
2 | G71U C124A | 2.05
3 | G71U G93U | -0.956
4 | G71U G110U | -1.24
5 | G71U G122U | -0.542
6 | G71U U81A C123A | -1.04
7 | G71U U81G A111U | -6.76
8 | G71U U87C | -0.194
9 | G71U U96A | -1.24
10 | G71U U112C | 1.34
11 | G71U U131A U133G | -1.3
12 | C72A | 0.126
13 | C72A A83U | -0.322
14 | C72A A83U C123G U126A | 0.126
15 | C72A A91C G117C | -4.28
16 | C72A A103U C124G U131C | -2.63
17 | C72A A118U | 0.818
18 | C72A C73A | -0.947
19 | C72A C80U C114G | -3.31
20 | C72A C82A U87A | -0.837
21 | C72A C85G G93A U106C | -1.13
22 | C72A C85U C102U A121G U133A | 0.201
23 | C72A C86A | -0.267
24 | C72A C88G C124A | 1.33

Row | Variant | polymerase ribozyme fitness (log ratio)
25 | C72A C89A | -0.502
26 | C72A C89U | -0.157
27 | C72A C94U | -0.00506
28 | C72A C98A U131A | -5.63
29 | C72A C114U | -1.24
30 | C72A C124A | 1.27
31 | C72A C124G | 2.23
32 | C72A G93C C102G | -6.8
33 | C72A G107A | -4.95
34 | C72A G110A | -1.01
35 | C72A G113U G120A U132A | -2.87
36 | C72A G117A | -1.19
37 | C72A G120U | 0.158
38 | C72A U81G G110U | -6.47
39 | C72A U87A | 0.169
40 | C72A U87G A111G | 0.26
41 | C72A U109A C123U | -6.2
42 | C72A U125G U131A | -0.709
43 | C72A U130A | -0.443
44 | C72A U131C | -0.247
45 | C72G | -0.25
46 | C72G A91C | -1.51
47 | C72G A91G | -1.13
48 | C72G A95C | -2.36

Row | Variant | polymerase ribozyme fitness (log ratio)
49 | C72G A111C | -0.642
50 | C72G A111U U130G | -4.27
51 | C72G A119G | 1.3
52 | C72G C80A | -5.5
53 | C72G C80G U130C | -5.89
54 | C72G C82A | -1.18
55 | C72G C82A C85A A95U | -4.18
56 | C72G C82G | -1
57 | C72G C82U C102A G120A | -1.89
58 | C72G C86G A121U U125A G135U | -2.76
59 | C72G C88U U129A | -0.881
60 | C72G C89U | -0.34
61 | C72G C94U | 0.173
62 | C72G C101A | -0.799
63 | C72G C101U | -0.7
64 | C72G C102U U106G | -4.73
65 | C72G C114A U130C U133G | -1.37
66 | C72G C114U | -2.37
67 | C72G C123U | 0.62
68 | C72G C124U | 1.15
69 | C72G G77U C85U U106A U109A | -7.01
70 | C72G G93A | -0.585
71 | C72G G107A | -4.9
72 | C72G G113C C114U C115G C124U | -4.29

Row | Variant | polymerase ribozyme fitness (log ratio)
73 | C72G G117A | -1.8
74 | C72G G117C A119U | -0.356
75 | C72G G117C U130G | -4.4
76 | C72G G117U | -2.41
77 | C72G G117U A121U G127A | -3.25
78 | C72G G127A | -1.26
79 | C72G G127C | -0.368
80 | C72G U78C U109A | -6.55
81 | C72G U81A C82G G128C | -4.54
82 | C72G U81C C101U | -0.875
83 | C72G U81G C97U | -4.63
84 | C72G U87A | -2.08
85 | C72G U87G G117A | -2.09
86 | C72G U92C | -1.36
87 | C72G U106A | -0.511
88 | C72G U112A U129A | 0.0162
89 | C72G U125G | -1.12
90 | C72G U126G | -2.09
91 | C72G U131G | -0.31
92 | C72U | -0.393
93 | C72U A74U U106A G127A | -1.68
94 | C72U A75C A118U G120U | -0.721
95 | C72U A75U C114A G122C | -2.52
96 | C72U A83C C115G | -1.78

Row | Variant | polymerase ribozyme fitness (log ratio)
97 | C72U A83U C98U | -0.271
98 | C72U A91C G93U U126G | -4.23
99 | C72U A91G C104A G127C | -4.76
100 | C72U A91U A100U A119U | -3.58
101 | C72U A95C | -0.818
102 | C72U A105G | -3.04
103 | C72U A118C | -2.89
104 | C72U A119U | -0.327
105 | C72U C73U C88U G113U U125A | -5.18
106 | C72U C79A A83G C115G C123A U131G | -4.99
107 | C72U C82A C115A | -1.79
108 | C72U C82G G110U | -2.93
109 | C72U C82U C98U A119G | -0.0419
110 | C72U C85U | -1.48
111 | C72U C86A A90G G110A | -1.38
112 | C72U C86A A103C | -5.58
113 | C72U C86G | -0.742
114 | C72U C86G U126G | -3.16
115 | C72U C86U G107U G113U | -6.11
116 | C72U C86U U126G | -2.65
117 | C72U C88A C101A | -1.43
118 | C72U C94A | -1.26
119 | C72U C94G A103G G113U U126A | -5.45
120 | C72U C97U U106C A108G | -6.08

Row | Variant | polymerase ribozyme fitness (log ratio)
121 | C72U C98U | -1.53
122 | C72U C98U U116A | -4.95
123 | C72U C99U | -3.71
124 | C72U C99U A119U | -3.8
125 | C72U C101G | -2.18
126 | C72U C101G G117U | -3.6
127 | C72U C102A | -1.81
128 | C72U C102A G120U U130G | -2.46
129 | C72U C102G | -5.51
130 | C72U C104U | -0.541
131 | C72U C114U | -1.89
132 | C72U C114U C123U U130A G135A | -2.43
133 | C72U C115U U129G | -2.18
134 | C72U G77U | -0.309
135 | C72U G93A C102U G117A | -4.25
136 | C72U G110A | -1.45
137 | C72U G110U | -1.17
138 | C72U G110U U125A | -2.31
139 | C72U G120A | 0.502
140 | C72U G120A C124U | 1.83
141 | C72U G120C | 0.644
142 | C72U G120C U131G | 0.516
143 | C72U G128U | -1.48
144 | C72U G135C | -0.00236

Row | Variant | polymerase ribozyme fitness (log ratio)
145 | C72U U78C C86G C115U | -1.64
146 | C72U U78G U109C | -5.41
147 | C72U U81G C85A | -3.96
148 | C72U U87A | -0.188
149 | C72U U87G C89U C123A | 0.156
150 | C72U U92A A95U | -4.07
151 | C72U U96A | -1.65
152 | C72U U96G U126C | -1.75
153 | C72U U109A | -5.61
154 | C72U U126C | -0.816
155 | C72U U129G | -1.46
156 | C72U U132C | -0.841
157 | C72U U133G | -0.942
158 | C73A A74C | -0.174
159 | C73A A84U C88A G110A C123A U126C | -4.76
160 | C73A A90U A105G G113C G122C | -3.65
161 | C73A A91G | -0.975
162 | C73A A91U | -0.926
163 | C73A A91U C94U | -2.58
164 | C73A A119G | 0.838
165 | C73A C82U | -0.0503
166 | C73A C85U U116G | -2.18
167 | C73A C86U | 1.13
